# According to patent US20250313626A1 (HARBOUR BIOMED SHANGHAI, published 2025):
# Where two headings read alike, the source gives them in different places.
# T1: human CD200R1 isoform a on CHOK1 cells (CHOK1/hCD200R1a) (human, UniProt Q8TD46 25-348)
# T1 construct: also called CHOK1/CD200R1a
# T1 sequence: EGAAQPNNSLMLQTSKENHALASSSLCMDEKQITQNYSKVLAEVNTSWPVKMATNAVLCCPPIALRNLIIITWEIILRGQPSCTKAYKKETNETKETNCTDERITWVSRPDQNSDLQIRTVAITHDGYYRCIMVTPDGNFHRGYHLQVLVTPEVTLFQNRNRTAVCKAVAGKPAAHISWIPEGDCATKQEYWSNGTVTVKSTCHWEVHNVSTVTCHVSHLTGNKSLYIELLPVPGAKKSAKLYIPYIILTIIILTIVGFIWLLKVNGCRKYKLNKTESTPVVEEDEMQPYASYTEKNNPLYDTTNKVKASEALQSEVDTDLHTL
# T2: Mouse CD200R1-His (mouse, UniProt Q9ES57 26-238, limits assumed)
# T2 sequence (looked up): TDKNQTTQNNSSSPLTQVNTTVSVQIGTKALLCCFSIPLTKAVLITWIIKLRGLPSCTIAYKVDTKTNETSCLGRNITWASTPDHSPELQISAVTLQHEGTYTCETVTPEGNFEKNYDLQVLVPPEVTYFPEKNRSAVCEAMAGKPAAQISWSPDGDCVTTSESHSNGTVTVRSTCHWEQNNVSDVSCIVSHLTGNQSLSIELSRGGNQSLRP
# T3: CD200R1a on PathHunter Jurkat CD200R1a signaling cells (Eurofins DiscoverX, 93-1136C19) (human, UniProt Q8TD46 25-348)
# T3 sequence: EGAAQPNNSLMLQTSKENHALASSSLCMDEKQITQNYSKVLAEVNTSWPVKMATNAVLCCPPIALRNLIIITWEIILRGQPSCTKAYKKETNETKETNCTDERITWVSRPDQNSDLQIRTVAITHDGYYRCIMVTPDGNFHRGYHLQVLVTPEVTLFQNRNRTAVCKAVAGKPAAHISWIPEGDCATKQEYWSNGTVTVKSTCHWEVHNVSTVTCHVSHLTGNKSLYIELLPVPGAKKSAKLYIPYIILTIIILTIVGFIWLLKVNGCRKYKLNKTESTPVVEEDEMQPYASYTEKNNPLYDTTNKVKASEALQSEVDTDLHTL
# T4: human CD200R1a protein (soluble recombinant) (human, UniProt Q8TD46 29-265)
# T4 construct: Soluble protein used in BLI; also called human CD200R1 isoform a; not shown: His tag implied by capture on anti-Penta-HIS biosensors
# T4 sequence: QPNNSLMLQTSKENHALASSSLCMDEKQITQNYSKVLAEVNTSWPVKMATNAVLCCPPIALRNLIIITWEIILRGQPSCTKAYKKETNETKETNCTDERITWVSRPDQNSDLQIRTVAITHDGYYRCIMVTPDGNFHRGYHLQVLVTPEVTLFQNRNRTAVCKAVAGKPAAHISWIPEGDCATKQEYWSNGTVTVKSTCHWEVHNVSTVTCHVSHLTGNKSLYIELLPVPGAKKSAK
# T5: Cynomolgus macaques CD200R1 isoform a on CHOK1 cells (CHOK1/cynoCD200R1a) (Cynomolgus macaques)
# T5 chain: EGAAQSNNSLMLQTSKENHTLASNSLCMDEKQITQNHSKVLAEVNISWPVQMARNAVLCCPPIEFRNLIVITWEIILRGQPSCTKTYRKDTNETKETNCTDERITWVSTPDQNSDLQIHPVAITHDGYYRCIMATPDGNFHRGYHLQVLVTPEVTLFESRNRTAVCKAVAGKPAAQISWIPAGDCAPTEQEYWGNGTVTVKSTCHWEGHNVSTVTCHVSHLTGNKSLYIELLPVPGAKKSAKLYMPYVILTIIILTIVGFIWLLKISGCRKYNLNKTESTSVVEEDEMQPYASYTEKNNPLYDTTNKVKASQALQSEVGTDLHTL
# Columns and labels:
# [1] = target: T1, human CD200R1 isoform a on CHOK1 cells …; experiment: flow cytometry blocking assay: antibody titrated against biotin-labelled human CD200 binding to CHOK1/hCD200R1a cells
# Procedure: To study the activity of human anti-CD200R1 antibodies in blocking the binding of human CD200 to its receptor CD200R1a in vitro, CHOK1/hCD200R1a was used to perform cell-level human CD200/human CD200R1a binding and blocking experiments.
# (§1) In brief, CHOK1/hCD200R1a cells were digested and resuspended in 2% BSA in PBS. […] The cells were placed at 4° C. and incubated for 1 hour in the dark. […] 100 μL/well of pre-cooled PBS containing 2% BSA was added to rinse the cells twice, centrifugation was performed at 500 g, 4° C. for 5 minutes, and the supernatant was discarded. Fluorescent secondary antibody (PE Streptavidin, BD, Cat #: 554061, 1:200) was added at 100 μL/well, and incubation was performed at 4° C. for 30 minutes in the dark. The cells were washed twice with 200 μL/well of pre-cooled PBS, and were centrifuged at 500 g, 4° C. for 5 minutes, and the supernatant was discarded. Finally, 200 μL/well of pre-cooled PBS was used to resuspend the cells, and the fluorescence signal values were read using ACEA Novocyte 3000 flow cytometer. IC50 values were calculated.
# [2] = target: T1, human CD200R1 isoform a on CHOK1 cells …; experiment: flow cytometry, CHOK1/hCD200R1a cells; table beside the curves, head without unit, x axis Log [Ab] (nM)
# Procedure: (§2) This example is intended to investigate the in vitro binding activity of human anti-CD200R1 monoclonal antibodies to human/Cynomolgus macaques CD200R1a expressed on the surface of cells. The anti-CD200R1 antibodies were produced as described in Example 3.4 and the binding experiments at the cell level were performed using CHOK1/hCD200R1a and CHOK1-cynoCD200R1a.
# (§3) Briefly, CHOK1/hCD200R1a cells and CHOK1-cynoCD200R1a cells were digested, and collected, and then were resuspended in PBS containing 2% BSA, respectively. The cell density was adjusted to 1×10⁶ cells/mL. The cells were seeded in a 96-well V-bottom plate (Corning, #3894) at 100 μL/well, followed by the addition of test antibodies and reference antibodies in a series diluted concentration, each at 100 μL/well. The cells were incubated away from light at 4° C. for 1 h. Thereafter, the cells in each well were rinsed twice with 100 μL of pre-cooled PBS containing 2% BSA, and centrifuged at 500 g at 4° C. for 5 min, and then the supernatant was discarded. 100 μL of fluorescent secondary antibody (Alexa Fluor 488-conjugated AffiniPure Goat Anti-Human IgG, Fcγ Fragment Specific, Jackson, #109-545-098, diluted in a 1:1000 ratio) was added in each well, and the plate was incubated away from light at 4° C. for 1 h. The cells in each well were rinsed twice with 100 μL of pre-cooled PBS containing 2% BSA, and centrifuged at 500 g at 4° C. for 5 min, and then the supernatant was discarded. Finally, the cells in each well were resuspended in 200 μL of pre-cooled PBS containing 2% BSA, and the fluorescence signal values were read using a BD CantoII flow cytometer.
# Mouse CD200R1-His = target: T2, Mouse CD200R1-His; experiment: BLI (Octet), antibody captured on anti-human Fc sensor
# Procedure: (§4) To determine the binding affinities of the anti-CD200R1 antibodies to CD200R1a proteins of various species (mouse, human, Cynomolgus macaques), bio-layer interferometry (BLI) assays were carried out using an Octet® RED96e instrument. Antibodies were produced as described in Example 3.4 and diluted to 5 μg/mL using freshly prepared 1× kinetic buffer (10× kinetic buffer (Catalog #18-1105, ForteBio) was diluted with PBS(Catalog #E607016-0500, BBI Life Sciences)) and were captured on the surface of anti-human Fc (AHC) Octet biosensors (Catalog #18-5060, ForteBio) to reach capture levels between 0.9-1.2 nm. The biosensors having the captured anti-CD200R1 antibodies were then dipped in wells containing 2-fold serial dilutions of CD200R1a proteins to detect association signals, followed by dissociation steps in wells containing 1× kinetic buffer. The sensorgrams were recorded and the reference signals were subtracted before curve fitting using ForteBio Data Analysis 11.0 software. Association rates (kₒₙ) and dissociation rates (koff) were calculated using a simple one-to-one Langmuir binding model. The equilibrium dissociation constant (KD) was calculated as the ratio of koff/kₒₙ.
# [3] = target: T3, CD200R1a on PathHunter Jurkat CD200R1a …; experiment: cell-based or functional assay
# [4] = target: T4, human CD200R1a protein (soluble …); experiment: BLI (Octet), antibody captured on anti-human Fc sensor, soluble CD200R1a as analyte, 1:1 fit
# Procedure: as §4
# [5] = target: T1, human CD200R1 isoform a on CHOK1 cells …; experiment: flow cytometry, CHOK1/hCD200R1a cells (FITC-Mean); table beside the curves, head without unit, x axis Log [Ab] (nM)
# [6] = target: T1, human CD200R1 isoform a on CHOK1 cells …; experiment: flow cytometry, CHOK1/hCD200R1a cells (FITC-Mean); table beside the curves
# Procedure: as §2, §3
# [7] = target: T3, CD200R1a on PathHunter Jurkat CD200R1a …; experiment: cell-based or functional assay; remark: listed apart in the source
# [8] = target: T1, human CD200R1 isoform a on CHOK1 cells …; experiment: flow cytometry blocking assay: antibody titrated against biotin-labelled human CD200 binding to CHOK1/hCD200R1a cells; head prints EC50 without unit, x axis Log [Ab] (nM), y axis Inhibition %
# Procedure: as §1
# [9] = target: T1, human CD200R1 isoform a on CHOK1 cells …; experiment: flow cytometry blocking assay: biotin-labelled human CD200 binding to CHOK1/hCD200R1a cells; y axis Inhibition %
# Procedure: as §1
# [10] = target: T5, Cynomolgus macaques CD200R1 isoform a …; experiment: flow cytometry, CHOK1/cynoCD200R1a cells (APC-A Mean); table beside the curves
# [11] = target: T3, CD200R1a on PathHunter Jurkat CD200R1a …; experiment: cell-based or functional assay; remark: listed apart in the source
Binder,binding result (Mouse CD200R1-His),EC50 [10] [nM],MFI (MAX) [10],Blocking (Max %) [1] [%],IC50 [1] [nM],EC50 [2] [nM],"IC50 of the inhibition of CD200-induced PathHunter Jurkat CD200R1a luminescence (CHOK1/hCD200 cells as CD200 source); head without unit, x axis Log [Ab] (nM) [3] [nM]",Kd [4] [nM],koff [4] [s⁻¹],kon [4] [M⁻¹ s⁻¹],EC50 [5] [nM],MFI(Max) [6],IC50 of the inhibition of CD200-induced PathHunter Jurkat CD200R1a luminescence (CHOK1/hCD200 cells as CD200 source) [7] [nM],EC50 [8] [nM],Blocking(Max) [9] [%],IC50 of the inhibition of CD200-induced PathHunter Jurkat CD200R1a luminescence (CHOK1/hCD200 cells as CD200 source) [11] [nM]
"PR006475 (antibody, human IgG1, kappa, L234A L235A, V domains shown) VH: QVQLQESGPGLVKPSGTLSLTCAVSGASISSGHWWSWVRQPPGKGLEWIGEIYHSGSTNYTPSLKSRVTISVDKSKNQFSLKLTSVTAADTAVYYCAREASYHYGSGSYYTPFDFWGQGTLVTVSS VL: EIVLTQSPATLSVSPGERATLSCRASQSVSSNLAWYQQKPGQAPRLLIYGASTRATGIPARFSGSGSGTEFTLTISSLQSEDFALYYCQQYNNWIIFGQGTRLEIKR",no binding,,,110,32.2,6.97,10.6,12.8,0.000376,29400,,,,,,
"PR007630 (antibody, human IgG1, kappa, V domains shown, PTM variant of PR006839 (human IgG1)) VH: QVQLVESGGGVVQPGRSLRLSCAASGFTFSSYGFHWVRQAPGKGLEWLGIIWSDASNKYYADSVKGRFTISRDNSKNTLYLQMNSLRAEDTAVYYCARDRIVGEGFDYWGQGTLVTVSS VL: DIVMTQSPLSLPVTPGEPASISCRSSQSLLHRSGYNYLDWYLQKPGQSPQLLIYLGSYRASGVPDRFSGSGSGTDFTLKISRVEAEDVGVYYCMQGLQTMYTFGQGTKLEIKR",,4.69,58600,,,,,,,,0.313,18900,0.46,0.359,99.9,

# The next lines start with results.
binding result (Mouse CD200R1-His),EC50 [10] [nM],MFI (MAX) [10],Binder,Blocking (Max %) [1] [%],IC50 [1] [nM],EC50 [2] [nM],"IC50 of the inhibition of CD200-induced PathHunter Jurkat CD200R1a luminescence (CHOK1/hCD200 cells as CD200 source); head without unit, x axis Log [Ab] (nM) [3] [nM]",Kd [4] [nM],koff [4] [s⁻¹],kon [4] [M⁻¹ s⁻¹],EC50 [5] [nM],MFI(Max) [6],IC50 of the inhibition of CD200-induced PathHunter Jurkat CD200R1a luminescence (CHOK1/hCD200 cells as CD200 source) [7] [nM],EC50 [8] [nM],Blocking(Max) [9] [%],IC50 of the inhibition of CD200-induced PathHunter Jurkat CD200R1a luminescence (CHOK1/hCD200 cells as CD200 source) [11] [nM]
,4.48,51200,"PR007972 (antibody, human IgG1, kappa, V domains shown, PTM variant of PR006839 (human IgG1)) VH: QVQLVESGGGVVQPGRSLRLSCAASGFTFSYYGFHWVRQAPGKGLEWLGIIWSDASNKYYADSVKGRFTISRDNSKNTLYLQMNSLRAEDTAVYYCARDRIVGEGFDYWGQGTLVTVSS VL: not shown",,,,,,,,0.19,19000,,0.158,99.9,0.368
,3.63,51800,"PR007631 (antibody, human IgG1, kappa, V domains shown, PTM variant of PR006839 (human IgG1)) VH: QVQLVESGGGVVQPGRSLRLSCAASGFTFSSYGFHWVRQAPGKGLEWLGLIWSDARHKDYADSVKGRFTISRDNSKNTLYLQMNSLRAEDTAVYYCARDRIVGEGFDYWGQGTLVTVSS VL: DIVMTQSPLSLPVTPGEPASISCRSSQSLLHRSGYNYLDWYLQKPGQSPQLLIYLGSYRWSGVPDRFSGSGSGTDFTLKISRVEAEDVGVYYCMQGLQTMYTFGQGTKLEIKR",,,,,,,,0.311,19400,0.266,0.323,99.9,
